Experimental findings from patent US20240035010, “COMPOSITIONS COMPRISING A VARIANT POLYPEPTIDE AND USES THEREOF” (Arbor Biotechnologies, Inc., published 2024) are described below.

Series [1] addresses T1, variant nuclease K35G combination (P14R, D32R, I61R, E311R, K35G).
T1 chain: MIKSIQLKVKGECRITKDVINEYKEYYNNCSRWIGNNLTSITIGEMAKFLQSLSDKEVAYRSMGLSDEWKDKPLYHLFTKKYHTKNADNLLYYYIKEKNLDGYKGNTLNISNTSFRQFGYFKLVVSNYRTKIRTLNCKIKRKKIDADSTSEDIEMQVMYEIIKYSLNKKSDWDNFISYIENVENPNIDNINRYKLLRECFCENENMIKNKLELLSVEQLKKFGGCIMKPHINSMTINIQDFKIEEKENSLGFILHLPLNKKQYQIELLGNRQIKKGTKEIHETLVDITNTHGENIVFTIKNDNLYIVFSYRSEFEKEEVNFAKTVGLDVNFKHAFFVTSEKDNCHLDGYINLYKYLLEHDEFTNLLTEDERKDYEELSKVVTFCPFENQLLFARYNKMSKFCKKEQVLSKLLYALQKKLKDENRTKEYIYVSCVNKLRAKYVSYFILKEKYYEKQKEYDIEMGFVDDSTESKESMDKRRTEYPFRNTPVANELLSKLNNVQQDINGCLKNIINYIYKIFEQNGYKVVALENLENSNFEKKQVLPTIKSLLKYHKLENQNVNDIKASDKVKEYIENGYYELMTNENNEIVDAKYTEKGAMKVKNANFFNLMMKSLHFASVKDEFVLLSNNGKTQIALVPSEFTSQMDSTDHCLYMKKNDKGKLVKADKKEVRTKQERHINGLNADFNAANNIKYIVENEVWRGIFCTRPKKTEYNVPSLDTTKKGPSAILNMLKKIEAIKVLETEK
Put plainly: cell_activity; PAM 5'-TTTG-3'. The following applies: tags: pcDNA3.1 expression. The protocol: (§1) Approximately 16 hours prior to transfection, 25,000 HEK293T cells in DMEM/10% FBS+Pen/Strep (D10 media) were plated into each well of a 96-well plate. On the day of transfection, the cells were 70-90% confluent. For each well to be transfected, a mixture of Lipofectamine 2000™ and Opti-MEM™ was prepared and incubated at room temperature for 5 minutes (Solution 1). After incubation, the Lipofectamine 2000™:Opti-MEM™ mixture was added to a separate mixture containing nuclease plasmid, RNA guide plasmid, and Opti-MEM™ (Solution 2). In the case of negative controls, the RNA guide plasmid was not included in Solution 2. Solutions 1 and 2 were mixed by pipetting up and down, then incubated at room temperature for 25 minutes. Following incubation, the Solution 1 and 2 mixture was added dropwise to each well of a 96-well plate containing the cells. Approximately 72 hours post transfection, cells were trypsinized by adding TrypLE™ to the center of each well and incubating at 37° C. for approximately 5 minutes. D10 media was then added to each well and mixed to resuspend cells. The resuspended cells were centrifuged at 500 g for 10 minutes to obtain a pellet, and the supernatant was discarded. The cell pellet was then resuspended in QuickExtract™ buffer (Lucigen®), and cells were incubated at 65° C. for 15 minutes, 68° C. for 15 minutes, and 98° C. for 10 minutes.
(§2) This Example describes assessment of indel activity at multiple target sites using the wild-type polypeptide of SEQ ID NO: 3 or variant polypeptides of Table 4. The variant polypeptides were cloned into a pcDNA3.1 backbone (Invitrogen), and the cells were transfected as described in Example 7.
(§3) The percentage of NGS reads containing indels (% indels) were calculated. For each variant polypeptide and target, % indels were averaged across two bioreplicates and two technical replicates. These values were then compared to % indels of the wild-type polypeptide of SEQ ID NO: 3.

Series [2] concerns the target T2, variant nuclease E736G combination (P14R, D32R, I61R, E311R, E736G).
T2 chain: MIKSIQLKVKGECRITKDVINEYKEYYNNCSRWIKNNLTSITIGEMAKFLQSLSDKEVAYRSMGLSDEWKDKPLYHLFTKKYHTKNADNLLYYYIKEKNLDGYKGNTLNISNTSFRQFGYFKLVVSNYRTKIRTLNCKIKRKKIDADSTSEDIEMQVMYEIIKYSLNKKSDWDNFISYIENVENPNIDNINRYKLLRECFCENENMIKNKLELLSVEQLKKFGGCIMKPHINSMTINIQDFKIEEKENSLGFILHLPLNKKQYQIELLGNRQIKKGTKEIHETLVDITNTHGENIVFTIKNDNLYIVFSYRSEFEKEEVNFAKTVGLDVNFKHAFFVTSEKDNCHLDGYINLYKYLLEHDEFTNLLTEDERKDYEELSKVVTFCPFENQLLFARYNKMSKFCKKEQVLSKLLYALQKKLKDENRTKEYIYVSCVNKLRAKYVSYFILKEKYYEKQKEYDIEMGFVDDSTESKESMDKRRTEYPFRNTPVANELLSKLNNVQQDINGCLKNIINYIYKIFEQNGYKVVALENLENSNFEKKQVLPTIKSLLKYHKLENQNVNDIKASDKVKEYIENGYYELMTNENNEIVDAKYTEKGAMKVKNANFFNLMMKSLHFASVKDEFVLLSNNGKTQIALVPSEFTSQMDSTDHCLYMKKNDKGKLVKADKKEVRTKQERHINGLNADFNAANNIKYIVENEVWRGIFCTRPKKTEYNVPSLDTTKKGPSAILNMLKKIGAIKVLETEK
Put plainly: cell_activity; PAM 5'-TTTG-3'. The following applies: tags: pcDNA3.1 expression. As for the experimental part: as §1, §2, §3

B1: AAVS1 crRNA ; AAVS1 target (ssRNA ; dsDNA)
RNA: CUUGUUGUAUAUGUCCUUUUAUAGGUAUUAAACAACUGAGAAUGGUGCGUCCUAGG
DNA 1: TGAGAATGGTGCGTCCTAGG
DNA 2: CCTAGGACGCACCATTCTCA
Regarding B1, the indel activity in series [1] was 5.66 fold of WT; in series [2], 5.28 fold of WT.
